The values below come from PMC9345960, “ERK1/2 inhibits Cullin 3/SPOP-mediated PrLZ ubiquitination and degradation to modulate prostate cancer progression” (Cell Death and Differentiation, 2022).

This assay concerns the target T1, HA-SPOP, wild type (UniProt O43791 1-374).
T1 construct: SPOP (Speckle-type POZ protein); also called HA-SPOP WT; pcDNA3-HA-SPOP; source: 293T, transfected, in lysate; also purified from transfected 293T cells using HA-tag beads
Put plainly: pull-down; GST pull-down: purified GST-PrLZ and HA-SPOP or His-SPOP incubated 3 h at 4 °C, washed with RIPA buffer, western blot (Fig. 2c: antibody against His). The following applies: both partners purified. For orientation: A western blot detects proteins with antibodies after separation by electrophoresis.

T1 sequence (O43791 whole entry): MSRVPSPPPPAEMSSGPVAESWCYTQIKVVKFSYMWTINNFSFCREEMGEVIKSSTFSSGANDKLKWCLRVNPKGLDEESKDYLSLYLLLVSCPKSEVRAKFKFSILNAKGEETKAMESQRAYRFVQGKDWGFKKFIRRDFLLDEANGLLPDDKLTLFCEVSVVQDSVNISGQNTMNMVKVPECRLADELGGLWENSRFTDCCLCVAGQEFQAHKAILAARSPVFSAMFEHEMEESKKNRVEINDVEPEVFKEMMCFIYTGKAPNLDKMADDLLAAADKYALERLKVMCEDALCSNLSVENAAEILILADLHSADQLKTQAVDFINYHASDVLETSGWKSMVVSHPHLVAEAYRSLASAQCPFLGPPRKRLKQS

B1: GST-PrLZ, wild type (bacterial) (natural protein, UniProt P55327 1-224, looked up)
chain: MDCREMDLYEDYQSPFDFDAGVNKSYLYLSPSGNSSPPGSPTLQKFGLLRTDPVPEEGEDVAATISATETLSEEEQEELRRELAKVEEEIQTLSQVLAAKEKHLAEIKRKLGINSLQELKQNIAKGWQDVTATSAYKKTSETLSQAGQKASAAFSSVGSVITKKLEDVKNSPTFKSFEEKVENLKSKVGGTKPAGGDFGEVLNSAANASATTTEPLPEKTQESL
notes: Prostate Leucine Zipper (PrLZ); also called GST-PrLZ WT; pGEX-4T-1-GST-PrLZ; source: E. coli BL21, purified (Glutathione Sepharose 4B)
As for B1, the binding result was “binds”.
